From the supplement of paper PMC9170038

System: MS2 coat protein
Experiment: apparent KD of MS2 coat protein; higher = weaker reporter binding
Settings: Eterna round: R107
Procedure: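 RNA-MaP round R107: designed RNA switches with theophylline, tryptophan, arginine or FMN aptamers are transcribed on-chip within common flanks. They are titrated with SNAP-549-labelled MS2 coat protein in RNA-MaP buffer (100 mM Tris pH 7.5, 80 mM KCl, 4 mM MgCl2), without ligand or with the indicated ligand. Median apparent KD per design.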

[1] = input ligand: theophylline 20 uM
[2] = input ligand: theophylline 2 mM
[3] = input ligand: tryptophan 2.4 mM

Row | Sequence | apparent KD of MS2 coat protein (input ligand: arginine 13.2 mM) [nM] | apparent KD of MS2 coat protein (input ligand: none) [nM] | apparent KD of MS2 coat protein [1] [nM] | apparent KD of MS2 coat protein [2] [nM] | apparent KD of MS2 coat protein [3] [nM]
1 | GUGUCCUAGUCGGCCGCCACUGGUACGAAUACCUUCACCCGUGUGCACAUGAGGAUCACCCAUGUCAGGACCGGGACUAGGGUGU [SSTryp B #24] | 9.87 | 10 | 11.4 | 14.1 | 9.72
2 | AAGACGGUCGGAAGGAGCGGUACAUGAGGAUCACCCAUGUACUUCUGGGCAUCCGUAGUGUGCCAGGUAGGUCGCCGAUUGCGGG [XArg-B12] | 32.7 | 22.4 | 36.3 | 24.9 | 22.8
3 | AGAUAACAUGGUUUAAUAAGAUAAACUGAUACCAGUGUAUAUAAUCACCCUUGGCAGCAGCAACAUGAGGAUCACCCAUGUAAUA [JR_SSTheophyA_Sub014] | 14.9 | – | 19.6 | – | 20.6
4 | UCUUCGUUGGCGUCACAAUUCAUGCAAUGCCGAGGACCGGUACGGCCGCCACUCGGACUAAUACAUGAGGAUCACCCAUGUCGUG [theeternabot_exclusion_MS2_Trp_A_5] | 37.9 | – | 111 | 219 | –
5 | GGCGCGCGCCAACAUGAGGAUCACCCAUGUCGAGGACCGGUACGGCCGCCACUCGAACGAGUGAAGCGCGCGCGCGGGCGACCGC [Saa] | 36.6 | 39.7 | 42.5 | 47.1 | 77.1
6 | GAUAGUUGAUGGGAUACCAGCGUGCACAUGAGGAUCACCCAUGUGGUUCGUGUACGACGGCGCCCUUGGCAGCCCAUAUUGUGUA [#13 Same State - Theophylline B] | 58.2 | – | 116 | – | 181
7 | UGUAUGGACUGAAGGAGCGCCUCAAAAUAGCUUGAGGAUCACCCAAGUAAGGCGAAAGCCGGGCAGGUAGGUCGCAGUCCAUACU [ArgBX 3] | 12.3 | 14.3 | 16.6 | 15.2 | 14.8
8 | AUACAUGAGGAUCACCCAUGUCAUUCAGAAGGAGCGUCAUUUUAGACAGGUAGGUCGCUGAUAUUAUUCUUAUACUUUAUGUUUA [JR_ExcArginiA_Sub022] | 21 | 17.7 | 26 | 19.5 | 20.2
9 | GGCGUCGGGCGAAGGAGCGUGAAGACAUGAGGAUCACCCAUGUAGAGGCCCGGACAGGGUUCGCAGGUAGGUCGCGCGCGGUGCC [#1 Same State - Arginine B Attempt #7 (HarryS)] | 17.5 | 13.7 | 23.2 | 19.5 | 16.9
10 | AGUUGACGAAAGUCAGCAACAUGAUCCGAAGGAGCGGGCGAAAGCCCAGGUAGGUCGCGGACAUGAGGAUCACCCAUGUCUCCUU [MAT - Exclusion Arginine A - Mod of Eli - D12] | 37.8 | 73.4 | 78.8 | 92.6 | 70.7
11 | AAUUUGUCGGGUGAUACCAGCCUCGGCGCAUCUCGCGCUGAACAUGAGGAUCACCCAUGUGGCCCUUGGCAGCACAUGACAAAUC [Veerdira] | 153 | – | 587 | – | 757
12 | UCACAUGAGGAUCACCCAUGUACAACUGAAGGAGCGAGACAAAACUCAGGUAGGUCGCAGAAUAAACAAUAGCAUACGACAUGGG [Exclusion Arginine A GF 19] | 44.6 | 31 | 43.1 | 26.3 | 27.7
13 | GAUAUGGAAACAUGUCAGAUCCUUACCGGUCGAGGACCGGUACGGCCGCCACUCGAAAAUAAUAAACAUGAGGAUCACCCAUGUA [Ex Tryptophan A 16] | 17 | – | 18.8 | 17.5 | –
14 | ACGCUGAUUGAUUACAAUCAGCGAAAAGAUACCAGUGGGUAAUCCCACCCUUGGCAGCUUAAAUAUGAGGAUCACCCAUAUGGUA [TheoAS 18 #MS2Right #BothOrNeither #AlternativeMS2] | 54.6 | 108 | 155 | 412 | 86.1
15 | CGUCGAAACUGAAGGAGCGAGAUAACAACAUUGGGUCUCAACAUGAGGAUCACCCAUGUAUCUCAGGUAGGUCGCGGUGUCACCG [Exclusion Arginine B GF19] | 176 | 202 | 267 | 429 | 217
16 | UCGCCCAGGAAGGAUUCCUGGGAUAUGGAAGGAGCGCUGAUGCCAGCAGGUAGGUCGCCAACGGACAUGAGGAUCACCCAUGUAC [Same State - Arginine A (Freestyle 8)] | 14.5 | 19.9 | 22.7 | 26.6 | 21.2
17 | AAUGAACAUGAGGAUCACCCAUGUCGUGAUACCAGCCGUAAGAGUGGCCCUUGGCAGCGCCAUGAGGACAACAACAUACAUGAGG [Same State Theophylline A] | 22.9 | – | 29.7 | – | 24.8
18 | ACAACAUGAGGCGAUACCAGAGGCAACAUGAGGAUCACCCAUGUUCACCCAUGUGAUCACCUCCCUUGGCAGCGCACAUGAGGAU [Same State - Theophylline B #1] | 13.7 | – | 17 | – | 12.3
19 | AAUUCCUCACAUGAGGAUCACCCAUGUGAAGGAGCGCCGAAUAAGGCAGGUAGGUCGCACAUGGAAACCUCUACGAAAGUAGUAA [XArg-A 3 NuV1V2] | 16.5 | 15.8 | 20.8 | 18.2 | 15.6

Row | Sequence | apparent KD of MS2 coat protein (input ligand: arginine 13.2 mM) [nM] | apparent KD of MS2 coat protein (input ligand: none) [nM] | apparent KD of MS2 coat protein [1] [nM] | apparent KD of MS2 coat protein [2] [nM] | apparent KD of MS2 coat protein [3] [nM]
20 | GGACUAACCAGAAGGAGCGACACGCAGAAACUGCAAUUUCCUCCACACGAGGAUCACCCGUGUCAGGUAGGUCGCUGGUUAGUCG | 28.3 | 25.4 | 37.3 | 31 | 26.7
21 | AACAUACAAUAAAAGGUGGAAAUAAGGCGGCGAGGACCGGUACGGCCGCCACUCGCGUACAUGAGGAUCACCCAUGUCUGAAACU [Same State - Tryptophan A (Freestyle 2)] | 12.5 | 22.8 | 24.2 | 28.8 | 19.1
22 | AAUAAGUACUUUGAUACCAGCCUGCCAUCAUGCUAAUUUACAUGAGGAUCACCCAUGUUAGGCCCUUGGCAGCAAAGUGCAAUAA [XTheo B #1] | 12.8 | – | 15.8 | – | 12.4
23 | UAAUAAGUGCCGGUUCUCAGAUCCUCAUGUCGAGGACCGGUACGGCCGCCACUCGAAACAUGAGGAUCACCCAUGUAAUAAUAAU [#08 Exclusion Tryptophan A] | 47.8 | – | 105 | 73.1 | –
24 | GAGCUGAUGUAGAGAAUAAAUAUAAGAGAUACCAGUACAGAAAUGUACCCUUGGCAGCUCAACUUUACAUGAGGAUCACCCAUGU [Ex Theophylline A 18] | 14.1 | – | 16.7 | – | 13.9
25 | ACAUGAGGAUCACCCAUGUUAAACAGGGUGCGAGGACCGGUACGGCCGCCACUCGGACAUUAUUACGAGUGAAUGGUAACGAUGU [#13 Exclusion Tryptophan A] | 21.1 | – | 33.6 | 26.5 | –
26 | GGUUACUCUACGGCCGCCACUGAAAAGUAAAUAUUAAUGUACAUGACAUGAGGAUCACCCAUGUACAGGACCGGGUAGUGUAACC [Tryptophan B 13] | 64.8 | – | 102 | 108 | –
27 | GAUGAACUAUUUGAUACCAGACAACAUGAGGAUCACCCAUGUGCGCGUCGUCCUCUGCCUGUCCCUUGGCAGCAAAUAGUUUAUC [XTheo B #10] | 52.6 | – | 81.8 | – | 36.6
28 | AUACAUGAGGAUCACCCAUGUAUAGUCGAUACCAGCUCAAGGAAGAGCCCUUGGCAGCGACACUGGUAUCCAUGGGUGAUACCAG [(Ms2)-(Theo)-(T)'-(M)'-(T)''_Design4] | 17.8 | – | 36.4 | – | 19.3
29 | AUACAUGAGGAUCACCCAUGUGAUGGCCGGCGAGGACCGGUACGGCCGCCACUCGUGAUCCGUCCUGAGAGCAAAGCUCUCAGCA [Macete] | 76 | 141 | 258 | 292 | 337
30 | GCUUGGGUCGCAAGGCCCUGGCGUUGCGAUACCAGCACGGUAACGUGCCCUUGGCAGCGCACAUGAGGAUCACCCAUGUGGUGCG [#1 Exclusion - Theophylline A Attempt #22 (HarryS)] | 16.5 | 18.3 | 27.8 | 229 | 17.4
31 | ACAUGAGGAUCACCCAUGUAGCCUAGGGAAGGAGCGUCGUAAGAGACAGGUAGGUCGCCCGCAUGUGAGUCAUCCAUGACGAGGG [#18 Same State - Arginine A] | 25.7 | 25.9 | 30.1 | 23.6 | 21.1
32 | UGUAUGUGAUCUGAUACCAGUCCAACUGGUAAAACAUGAGGAUCACCCAUGUAAAAUUGGGACCCUUGGCAGCAGAUCGCAUACU [ThBS 2] | 259 | – | 418 | – | 615
33 | CGGUUUGUGAUGGAUACCAGCAGAGUGGCUGUUUAUCCUGACAUGAGGAUCACCCAUGUGUGCCCUUGGCAGCUGUUGUGGGCUG [8.aB] | 85.8 | 86.8 | 137 | 108 | 74.4
34 | UUUUUCGUAGGUUAUAGUUUAGAAACUGAAGGAGCGUGGUAAUACACAGGUAGGUCGCAGAUUUUACAUGAGGAUCACCCAUGUU [JR_ExcArginiA_Sub013] | 23.5 | 24.1 | 27.6 | 25.1 | 22.7
35 | CCUCAUGAACAUGAGGAUCACCCAUGUACACGAGGACCGGUACGGCCGCCACUCGAAUAACCUAAAUAUAAAUAAUAAUAAUAGG [5' end split MS2] | 14.6 | – | 20.1 | 18.1 | –
36 | CUAUAAAUAGCGGCCGCCACUUACUCAUGAGGUAACAACAUGAGGAUCACCCAUGUUUGAGGAUCAAGGACCGGGCUAUUUAUAG [AstrosSSTryB#8] | 23.7 | – | 32.8 | 36.1 | –
37 | UUAAAUGUGACGGAUACCAGCGUGUUGUAGAACAUGAGGAUCACCCAUGUAGUGAUCGAGCGCCCUUGGCAGCUGGUAUGUUUGA [7.Y] | 102 | – | 365 | – | 270
38 | GAGCUGAUGUAGAGCUAAUAUAAGAGAGAUACCAGUACAGAAAUGUACCCUUGGCAGCUCAACUUUACAUGAGGAUCACCCAUGU [Ex Theophylline A 21] | 12.2 | – | 13.4 | – | 16
